From patent WO2020033925A2 (dated 2020)

Biological target: human BTN3A1 ectopically expressed on K32 cells (human, UniProt O00481 30-513)
Assay: cell-based or functional assay

Chain of human BTN3A1 ectopically expressed on K32 cells (O00481 30-513 limits assumed, form in doubt): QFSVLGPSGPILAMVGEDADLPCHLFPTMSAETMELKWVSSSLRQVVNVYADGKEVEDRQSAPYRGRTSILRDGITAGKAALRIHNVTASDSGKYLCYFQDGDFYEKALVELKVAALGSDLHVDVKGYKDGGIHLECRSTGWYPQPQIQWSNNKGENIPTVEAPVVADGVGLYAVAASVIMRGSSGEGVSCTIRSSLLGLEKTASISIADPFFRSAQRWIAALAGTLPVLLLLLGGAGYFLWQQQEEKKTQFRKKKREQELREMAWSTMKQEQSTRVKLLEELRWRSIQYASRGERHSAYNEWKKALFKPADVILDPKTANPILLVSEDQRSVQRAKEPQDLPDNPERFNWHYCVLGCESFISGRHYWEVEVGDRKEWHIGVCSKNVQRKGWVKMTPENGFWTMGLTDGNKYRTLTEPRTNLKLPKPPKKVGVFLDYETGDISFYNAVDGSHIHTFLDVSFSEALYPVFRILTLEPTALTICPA

B1: anti-CD277 monoclonal antibody mAb1 (antibody, V domains shown)
VH: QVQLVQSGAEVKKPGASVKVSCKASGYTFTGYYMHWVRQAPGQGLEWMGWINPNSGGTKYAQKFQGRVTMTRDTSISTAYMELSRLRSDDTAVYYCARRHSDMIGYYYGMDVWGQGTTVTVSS
VL: DIQMTQSPSSVSASVGDRVTITCRASQGISSWLAWYQQKPGKAPKLLIYAASSLQSGVPSRFSGSGSGTDFTLTISSLQPEDFATYYCQQATDFPPTFGGGTKVEIK
- proliferation of gated CD4+ T cells within total PBMCs co-cultured with anti-CD3/anti-CD28 coated BTN-K32 cells (Figure 3A): ≥ 1.5 fold
- proliferation of gated CD8+ T cells within total PBMCs co-cultured with anti-CD3/anti-CD28 coated BTN-K32 cells (Figure 3C): ≥ 1.5 fold
- proliferation of purified CD4+ T cells stimulated with BTN-K32 cells (Figure 4A): ≥ 1.5 fold
- proliferation of purified CD8+ T cells stimulated with BTN-K32 cells (Figure 4C): ≥ 2 fold
- release of IFN-g from purified CD4+ T cells stimulated with BTN-K32 cells (ELISA, Figure 5A): > 2 fold
- release of IFN-g from purified CD8+ T cells stimulated with BTN-K32 cells (ELISA, Figure 5C): ~1300 fold
